Data taken from publication PMC10991500, “A multi-enzyme cascade for efficient production of D-p-hydroxyphenylglycine from L-tyrosine” (Bioresources and Bioprocessing, 2021).

Assays:
[1] = system: T1, PmL-AAD; assay: initial rates by HPLC, Michaelis-Menten fit; type: biochemical, Proteus mirabilis; conditions: 50 mM Tris-HCl pH 8.0, 30 °C; substrate 1-20 mM
T1 construct: recombinant in E. coli BL21(DE3), Tween 80 solubilised, HisTrap purified
Text: initial rates by HPLC, Michaelis-Menten fit on PmL-AAD

[2] = substrate: O=C(O)C(=O)c1ccc(O)cc1; assay: initial rates of reductive amination, HPLC, Michaelis-Menten fit; type: biochemical, Corynebacterium glutamicum; conditions: 0.5 mM NADPH, 10 mM NH4Cl, 50 mM Tris-HCl pH 8.0, 30 °C, HPGA 1-20 mM
Text: initial rates of reductive amination, HPLC, Michaelis-Menten fit on CgDAPDH^BC621

[3] = substrate: O=C(O)[C@@H](O)c1ccc(O)cc1; assay: initial rates by HPLC, Michaelis-Menten fit; type: biochemical, Pseudomonas aeruginosa; conditions: 0.5 mM NADP+, 50 mM Tris-HCl pH 8.0, 30 °C, substrate 1-20 mM
Text: initial rates by HPLC, Michaelis-Menten fit on PaMDH

## N[C@@H](Cc1ccc(O)cc1)C(=O)O [L-tyrosine]
[1]
  Km: 2.94 ± 1.04 mM

B1: CgDAPDH^BC621 (Corynebacterium glutamicum ATCC 13032; D154G/H244N/Q150L/R195M/T169I) (protein)
chain: MTNIRVAIVGYGNLGRSVEKLIAKQPDMDLVGIFSRRATLDTKTPVFDVADVDKHADDVDVLFLCMGSATDIPEQAPKFAQFACTVDTYDNHRDIPRHRQVMNEAATAAGNVALVSTGWDPGMFSINRVYAAAVLAEHQQHTFWGPGLSLGHSGALRRIPGVQKAVQYILPSEDALEKARRGEAGDLTGKQTHKMQCFVVADAADHERIENDIRTMPDYFVGYEVEVNFIDEATFDSEHTGMPNGGHVITTGDTGGFNHTVEYILKLDRNPDFTASSQIAFGRAAHRMKQQGQSGAFTVLEVAPYLLSPENLDDLIARDV
notes: five-fold mutant BC621 in pET28a, recombinant in E. coli BL21(DE3), HisTrap purified
[2]
  Km: 20.37 ± 0.19 mM
  kcat: 0.00317 ± 0.00617 s⁻¹
  kcat/Km: 0.15 M⁻¹ s⁻¹

B2: CgDAPDH^BC621 (Corynebacterium glutamicum ATCC 13032; D154G/H244N/Q150L/R195M/T169P/W144S) (protein)
chain: MTNIRVAIVGYGNLGRSVEKLIAKQPDMDLVGIFSRRATLDTKTPVFDVADVDKHADDVDVLFLCMGSATDIPEQAPKFAQFACTVDTYDNHRDIPRHRQVMNEAATAAGNVALVSTGWDPGMFSINRVYAAAVLAEHQQHTFSGPGLSLGHSGALRRIPGVQKAVQYPLPSEDALEKARRGEAGDLTGKQTHKMQCFVVADAADHERIENDIRTMPDYFVGYEVEVNFIDEATFDSEHTGMPNGGHVITTGDTGGFNHTVEYILKLDRNPDFTASSQIAFGRAAHRMKQQGQSGAFTVLEVAPYLLSPENLDDLIARDV
notes: as for B1
[2]
  Km: 8.07 ± 0.68 mM
  kcat: 0.0225 ± 0.0232 s⁻¹
  kcat/Km: 2.83 M⁻¹ s⁻¹

B3: CgDAPDH^BC621 (Corynebacterium glutamicum ATCC 13032; D120S/D154G/H244N/Q150L/R195M/T169P) (protein)
chain: MTNIRVAIVGYGNLGRSVEKLIAKQPDMDLVGIFSRRATLDTKTPVFDVADVDKHADDVDVLFLCMGSATDIPEQAPKFAQFACTVDTYDNHRDIPRHRQVMNEAATAAGNVALVSTGWSPGMFSINRVYAAAVLAEHQQHTFWGPGLSLGHSGALRRIPGVQKAVQYPLPSEDALEKARRGEAGDLTGKQTHKMQCFVVADAADHERIENDIRTMPDYFVGYEVEVNFIDEATFDSEHTGMPNGGHVITTGDTGGFNHTVEYILKLDRNPDFTASSQIAFGRAAHRMKQQGQSGAFTVLEVAPYLLSPENLDDLIARDV
notes: as for B1
[2]
  Km: 7.83 ± 0.03 mM
  kcat: 0.0243 ± 0.0117 s⁻¹
  kcat/Km: 3.17 M⁻¹ s⁻¹

B4: CgDAPDH^BC621 (Corynebacterium glutamicum ATCC 13032; D120S/D154G/H244N/Q150L/R195M/T169P/W144S) (protein)
chain: MTNIRVAIVGYGNLGRSVEKLIAKQPDMDLVGIFSRRATLDTKTPVFDVADVDKHADDVDVLFLCMGSATDIPEQAPKFAQFACTVDTYDNHRDIPRHRQVMNEAATAAGNVALVSTGWSPGMFSINRVYAAAVLAEHQQHTFSGPGLSLGHSGALRRIPGVQKAVQYPLPSEDALEKARRGEAGDLTGKQTHKMQCFVVADAADHERIENDIRTMPDYFVGYEVEVNFIDEATFDSEHTGMPNGGHVITTGDTGGFNHTVEYILKLDRNPDFTASSQIAFGRAAHRMKQQGQSGAFTVLEVAPYLLSPENLDDLIARDV
notes: as for B1
[2]
  Km: 2.48 ± 0.28 mM
  kcat: 0.0448 ± 0.005 s⁻¹
  kcat/Km: 18 M⁻¹ s⁻¹

B5: CgDAPDH^BC621 (Corynebacterium glutamicum ATCC 13032; D154G/H244N/Q150L/R195M/T169P) (protein)
chain: MTNIRVAIVGYGNLGRSVEKLIAKQPDMDLVGIFSRRATLDTKTPVFDVADVDKHADDVDVLFLCMGSATDIPEQAPKFAQFACTVDTYDNHRDIPRHRQVMNEAATAAGNVALVSTGWDPGMFSINRVYAAAVLAEHQQHTFWGPGLSLGHSGALRRIPGVQKAVQYPLPSEDALEKARRGEAGDLTGKQTHKMQCFVVADAADHERIENDIRTMPDYFVGYEVEVNFIDEATFDSEHTGMPNGGHVITTGDTGGFNHTVEYILKLDRNPDFTASSQIAFGRAAHRMKQQGQSGAFTVLEVAPYLLSPENLDDLIARDV
notes: as for B1
[2]
  Km: 8.17 ± 0.89 mM
  kcat: 0.0247 ± 0.00417 s⁻¹
  kcat/Km: 3 M⁻¹ s⁻¹

B6: PaMDH (Pseudomonas aeruginosa) (protein)
chain: MSQNLFNVEDYRKLAQKRLPKMVYDYLEGGAEDEYGVKHNRDVFQQWRFKPKRLVDVSRRSLQAEVLGKRQSMPLLIGPTGLNGALWPKGDLALAQAATKAGIPFVLSTASNMSIEDLARQCDGDLWFQLYVIHREIAQGMVLKALHSGYTTLVLTTDVAVNGYRERDLHNRFKMPMSYTPKVMLDGCLHPRWSLDLVRHGMPQLANFVSSQTSSLEMQAALMSRQMDASFNWEALRWLRDLWPHKLLVKGLLSAEDADHCIAEGADGVILSNHGGRQLDCAVSPMEVLAQSVAKTGKPVLIDSGFRRGSDIVKALALGAEAVLLGRATLYGLAARGETGVDEVLTLLKADIDRTLAQIGCPDITSLSPDYLQSEGVTSTAPVDHLIGKGTHA
notes: recombinant in E. coli BL21(DE3), HisTrap purified
[3]
  Km: 0.89 ± 0.91 mM
  kcat: 0.123 ± 0.0122 s⁻¹
  kcat/Km: 179 ± 3.67 M⁻¹ s⁻¹
